Experimental data from paper PMC12481158.

Molecular target: CHLOROPLAST UNUSUAL POSITIONING 1 with C-terminal GFP (CHUP1:GFP) (N. benthamiana)
Experiment: FRET or BRET; nonfitting FLIM-FRET (average-arrival-time FRET) in planta; CHUP1:GFP donor, KAC1:RFP acceptor; mean weighted photon arrival time on chloroplasts juxtaposed to the PM

Substance: KINESIN-LIKE PROTEIN FOR ACTIN-BASED CHLOROPLAST MOVEMENT 1 with C-terminal RFP (KAC1:RFP) (natural protein)
- decrease in donor lifetime against CHUP1:GFP alone: 143 ps
- donor (CHUP1:GFP) fluorescence lifetime with KAC1:RFP: 2.27 ns
